Measured values reported in the supplement of paper PMC12764529.

Assay: folding stability dG unfold (combined trypsin and chymotrypsin); higher = more stable
Procedure: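 Folding stability of de novo designed mini-proteins (<80 aa, no Cys; designed by TrROS, TrMRF, ProteinMPNN and the joint model) was measured by cDNA display proteolysis with trypsin and chymotrypsin. Each protease was used at 11 concentrations in a threefold dilution series plus a no-protease condition. K50 was inferred by Bayesian fitting of sequencing counts, and dG unfold was derived against a sequence-predicted unfolded-state K50 (Tsuboyama et al. method). Sequences shown include variable-length N-terminal GS-type padding (SAGGSAGG...) inside a display construct carrying a PA tag. Rows were kept only if the AF2 dimer inter-PAE was >15, to exclude likely homo-oligomers.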

Row | Sequence | folding stability dG unfold
1 | SAGGSAGGSAGMKIFKSKEEAKKAAGPPVELKVKKVPPGSIGKGDPNDTAYLVELKPKEKSAGGSAGGSAGG [r11_168_TrMRF] | < -1 kcal/mol
2 | SAGGSAGGSAGMKKLVKITARVPDEKGNPILVEYEEEVDLKPSDSLPVPEGVLEEIEILESAGGSAGGSAGG [r11_664_JUSTAS] | < -1 kcal/mol
3 | SAGGSAGGSAGMMTLKTGSVTIVRPVPAEEAPAPPEVPGAEELTRTEVVKTEVELLPAELLSAGGSAGGSAG [r3_488_JUSTAS] | < -1 kcal/mol
4 | SAGGSAGGSAGMTPLYFRVERVDPASGGSLEEVVEIDPAEREAVVEELRAVPGLVRVELVSAGGSAGGSAGG [r17_438_JUSTAS] | < -1 kcal/mol
5 | SAGGSAGGSAGPLVLVKELKSSRPVFDKNGKLIGTKTEVLVEAELLAPPANPDDPRYKETSAGGSAGGSAGG [r11_131_TrMRF] | < -1 kcal/mol
6 | SAGGSAGGSAGPPGEPKPKPERKTVHINIPYPPGHPEMREKARELANELQDEGAKVEIYWSAGGSAGGSAGG [r11_519_TrROS] | < -1 kcal/mol
7 | SAGGSAGGSAGPTTSSRTVKPGEVEEVKEAIEAQGVSVTVTLDPSTGTYTVGVTNPGVLGSAGGSAGGSAGG [r11_1043_JUSTAS] | < -1 kcal/mol
8 | SAGGSAGGSAGSEKLEKIKEELKKKGYNDVEVKPAGPDPSVVLVKVKENKDIIIKIENEESAGGSAGGSAGG [r11_765_JUSTAS] | < -1 kcal/mol
9 | SAGGSAGGSAGSMTVTVLEVVPGVPEVVLRRGDTEIRVPASRYTLERDADTTTLVVPEAASAGGSAGGSAGG [r17_403_JUSTAS] | < -1 kcal/mol
10 | SAGGSAGGSAGSPAAERIAKYMEKQGGDNIDIEPVGPRPGYVRIKMKNNRPITIPLKEGDSAGGSAGGSAGG [r11_765_TrROS] | < -1 kcal/mol
11 | SAGGSAGGSAGTRTINMPNPHQARELIKEQPPGKPITIHMPNPEWAKELADAPGVPIQMHSAGGSAGGSAGG [r11_1071_TrROS] | < -1 kcal/mol
12 | SAGGSAGGSAIGLKDAVPGIENVAKALGAKAKAELKVLPDGKPYLVAKLYKDGKPLGELKVDSAGGSAGGSA [r18_369_TrMRF] | < -1 kcal/mol
13 | SAGGSAGGSAIKIPPGYWVRGEFPNVTRHIPIDDIDELKKTFPGNPIRDIEVYDPEDGKPISAGGSAGGSAG [r3_134_TrROS] | < -1 kcal/mol
14 | SAGGSAGGSAIVEKIAKEFGFPAKIEVKRERNPGKWVVIPVRVRDPNGGKTWERKIHLPPNQSAGGSAGGSA [r18_313_TrROS] | < -1 kcal/mol
15 | SAGGSAGGSAKHDVKIDDVERMPNPYRFTITFPGNGKPIPIPFRPNMSIDEMKKEAKELAKSAGGSAGGSAG [r3_142_TrROS] | < -1 kcal/mol
16 | SAGGSAGGSAKIKLENPDNMPPEELADTIAEEAREQHPDDKNIEIPFQFPNGNPWRITVDVPSAGGSAGGSA [r18_449_TrROS] | < -1 kcal/mol
17 | SAGGSAGGSAMEAEATPIPLETEEFEIVVTILPGGTARVTTTPPEDGVPTESTVSVETVRALSAGGSAGGSA [r18_247_JUSTAS] | < -1 kcal/mol
18 | SAGGSAGGSAMLVELEAGRVIEVPDATPEETRERVRAAVPPEVADEVRIVRAYDPERPVELSAGGSAGGSAG [r3_340_JUSTAS] | < -1 kcal/mol
19 | SAGGSAGGSAMNVKFFKLSENELRIEYNEIEEFEDGSLSEEIKTEILKLNLPEDDKKVKELLSAGGSAGGSA [r18_215_JUSTAS] | < -1 kcal/mol

Row | Sequence | folding stability dG unfold
20 | SAGGSAGGSAMSVSVSSPENAEKLAKEIKEKNPNEIPKITKGSGSNSYTLTLPSGKNIKVSSSAGGSAGGSA [r18_154_JUSTAS] | < -1 kcal/mol
21 | SAGGSAGGSAMTLRDIARELAEKHGEPYKIKISHPNGRKREFNPDDLDRIPPGPWEVEIERPSAGGSAGGSA [r18_394_TrROS] | < -1 kcal/mol
22 | SAGGSAGGSAMTSVKRSSGSWSITITTPDSTTTTTKAATEEEVQAEVEELKKPGIKVELSPESAGGSAGGSA [r18_103_JUSTAS] | < -1 kcal/mol
23 | SAGGSAGGSANPRTITVQYPVDPNGKPLPAEELADELQNEPFKVTDPQWNPEDGYVEDTIEVSAGGSAGGSA [r18_466_TrROS] | < -1 kcal/mol
24 | SAGGSAGGSAPDMYRIRAKFPDGKPFPIEFNPEDGQIEVWDGNKEQTIPPGKPIKIDKIEPVSAGGSAGGSA [r18_144_TrROS] | < -1 kcal/mol
25 | SAGGSAGGSAPEFVVEGSEEEAEAVFERIKAERPEEFEATDISTVSAVPPVPRYTPEGVLVSAGGSAGGSAG [r3_89_JUSTAS] | < -1 kcal/mol
26 | SAGGSAGGSASAEELAEALRREHPDAEVTVTVTPVPREVGPRPVLEREVTVESVRSPEEPASAGGSAGGSAG [r3_118_JUSTAS] | < -1 kcal/mol
27 | SAGGSAGGSASAWEQYPNTTPGTTSKTDDVTVRTLTFPNPTTVVTVTEFPGGEVTVTTVPTPSAGGSAGGSA [r18_26_JUSTAS] | < -1 kcal/mol
28 | SAGGSAGGSASMRTITITSSTSPSGPPLPAAELAAELAKEGYTVTDPRRVPAEGKLVFTVVASAGGSAGGSA [r18_466_JUSTAS] | < -1 kcal/mol
29 | SAGGSAGGSASSWTLLSTEKLGSKTRTTMNDPANGKTVTIETDPANGSKVVKVENKETEIESAGGSAGGSAG [r3_297_JUSTAS] | < -1 kcal/mol
30 | SAGGSAGGSATLEQIKEAIKDSPPGEPARIPFPNGYTIRIDMRYDKEENKIDDFDIEIEPPNSAGGSAGGSA [r18_202_TrROS] | < -1 kcal/mol
31 | SAGGSAGGSAYFVRIDNGPTIPIPGMSPDEAKEQLKEYLPPPNKENLKITDVYSPDNGKPLSAGGSAGGSAG [r3_340_TrROS] | < -1 kcal/mol
32 | SAGGSAGGSDKFKIDNIYPDPDMWVYRIKFPKGKSHTFPIPEENIDEFAEDDGFNVEPLGPVPSAGGSAGGS [r12_676_TrROS] | < -1 kcal/mol
33 | SAGGSAGGSEVTEFTGTIEDPNSSTVIEVKTKVIPLPNGTPVTITETTTTTGEKTTTTTTTFASAGGSAGGS [r12_619_JUSTAS] | < -1 kcal/mol
34 | SAGGSAGGSGDKSPPLVPTVTLKTTDPDAVEKAVKAAGVAVTRYPGKGYYTFRKADVEKILKSSAGGSAGGS [r12_325_TrMRF] | < -1 kcal/mol
35 | SAGGSAGGSGKIPKLIKEIGIPYEVKSIKVTTGKDDKPTVEIEFLPDVPEEDREKIKKAIEEESAGGSAGGS [r12_352_TrMRF] | < -1 kcal/mol
36 | SAGGSAGGSGMEPTFVPVEEIYYNPESNEISKTKSTVVIPPDGTVETFTTTEKFKKPPNASLESAGGSAGGS [r12_116_JUSTAS] | < -1 kcal/mol
37 | SAGGSAGGSGMPIVVTHPSGVGLDEYIPEPYVVTMREPDSVIKVTYDPATGTVTTEVDDGAARSAGGSAGGS [r12_243_JUSTAS] | < -1 kcal/mol
38 | SAGGSAGGSGMPVVLLEATFDPNNPGTTYRLTTVDPNTGGVAESEIPASEAEARGLGPLDVLESAGGSAGGS [r12_123_JUSTAS] | < -1 kcal/mol

Row | Sequence | folding stability dG unfold
39 | SAGGSAGGSISPEAAKEGPLTIEVSWMHPDGRTEEEEFPIGQPIKIPPDFKDRPPQITSIRPRSAGGSAGGS [r12_161_TrROS] | < -1 kcal/mol
40 | SAGGSAGGSKILEIERDPEKGLVKITVPPDVPPNPHPRLLKVEPKNNKYIVTFPMSPSDEIELSAGGSAGGS [r20_37_JUSTAS] | < -1 kcal/mol
41 | SAGGSAGGSKLKIEQDPSDGFLQIQIPPGDEEVKIKFNGEEIEFPLPPGQPIWIPANNWKIEPSAGGSAGGS [r20_26_TrROS] | < -1 kcal/mol
42 | SAGGSAGGSLVELEEEDPSVPVRRRYFIEKPSDGKVKVKEETVVPEPGEVVRSERVISLEEFEKSAGGSAGG [r6_652_JUSTAS] | < -1 kcal/mol
43 | SAGGSAGGSMDDTEEESSSVSRFLENGERYTTRTKTTTRIRPDGTEEVEVEVTTTPLPPDVPLSAGGSAGGS [r12_927_JUSTAS] | < -1 kcal/mol
44 | SAGGSAGGSMELPSGVVVKSTSEDPAAKTVTVSFPSGAVYTLPLPDPNVSQPVTVKTPPGAGVSAGGSAGGS [r12_149_JUSTAS] | < -1 kcal/mol
45 | SAGGSAGGSMKTVTIEVKRPSPDITLEDIKEELLKKNPEVEEVEVEEYPEEGLYKVKVTIKPKSAGGSAGGS [r20_31_JUSTAS] | < -1 kcal/mol
46 | SAGGSAGGSMKVELIRTEEGKVVATEFFPVPLLLPGGVPALLEGSRTIKTIPVKDPEKAKELLSAGGSAGGS [r12_915_JUSTAS] | < -1 kcal/mol
47 | SAGGSAGGSMKVRLLIGEEEVEKAIAEGIPKEVMKPEKEKIPSSTDPRFAGNPEPVLLYYIGESAGGSAGGS [r12_78_JUSTAS] | < -1 kcal/mol
48 | SAGGSAGGSMPYEVTITDPNSDRTRTRKVSGDSPEISEAVPPSHTVTLTFGGTKTTLPVPALSSAGGSAGGS [r20_36_JUSTAS] | < -1 kcal/mol
49 | SAGGSAGGSMSIPSDATLVRTYRRGGEELTVSGSVDPATGTVLSEGSLSKRPDATLTEVSVVSSAGGSAGGS [r12_6_JUSTAS] | < -1 kcal/mol
50 | SAGGSAGGSMTFKLKDGKVITYDPANPTLHFPGPPETIPTGGANIAQTIADLKAKGFDYEEVVESAGGSAGG [r6_340_JUSTAS] | < -1 kcal/mol
51 | SAGGSAGGSMVEEFETTEFSPPEPLVRVERLKKEIFTFPENSLSYKVTPVEERLVTPEEVAAESAGGSAGGS [r12_374_JUSTAS] | < -1 kcal/mol
52 | SAGGSAGGSMVEVVVRPPGGPEYRVSPETSPEEVRARVEAEAGPPPEIEISEEEAKALGVPARSAGGSAGGS [r12_379_JUSTAS] | < -1 kcal/mol
53 | SAGGSAGGSNGNYRIKIKIRKPNGEPKSQHTFNIPSPEQIKESLAQQPGFPPDRIEDVEVGPYSAGGSAGGS [r12_182_TrROS] | < -1 kcal/mol
54 | SAGGSAGGSPKEYYIRVKDPEKAKEIMKPLGWPIKPGDEFPIKDPEDILEKLPGIEGIEIHPVSAGGSAGGS [r12_571_TrROS] | < -1 kcal/mol
55 | SAGGSAGGSPLYIQIERRNPKNGENQTLELPIPIDGDPSDARDIAKEIAEQLPPNDYKIEVFRSAGGSAGGS [r12_871_TrROS] | < -1 kcal/mol
56 | SAGGSAGGSPPKPITIMAPYDSPEEAMDKAEEIADELANEGYDIKDVEIEYHPNNGYAMVRIRSAGGSAGGS [r20_155_TrROS] | < -1 kcal/mol
57 | SAGGSAGGSPSITIEKDKEKPVYKVTVYTPNGEKKVFENPEGKKVTTDSNGGEIYIDDVKINVSAGGSAGGS [r12_346_TrMRF] | < -1 kcal/mol
